Literature values as cited in publication PMC5012591.

Molecular target: flagellar motor switch protein FliM (Escherichia coli) (UniProt P06974)
Chain of UniProt P06974 (P06974 whole entry): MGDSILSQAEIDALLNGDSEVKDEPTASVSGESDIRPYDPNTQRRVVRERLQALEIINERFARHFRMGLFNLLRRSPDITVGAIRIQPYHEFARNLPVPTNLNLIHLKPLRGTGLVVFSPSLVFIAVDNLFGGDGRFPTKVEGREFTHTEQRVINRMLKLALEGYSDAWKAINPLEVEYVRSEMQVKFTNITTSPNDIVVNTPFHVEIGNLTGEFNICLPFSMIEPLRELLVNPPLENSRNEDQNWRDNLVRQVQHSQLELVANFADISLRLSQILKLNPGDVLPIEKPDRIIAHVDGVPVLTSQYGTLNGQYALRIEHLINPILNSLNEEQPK

In the case of CheY-P (from UniProt P0AE67), the Kd is listed as 3.06 µM.
